From the DeepSol protein solubility set

Experiment: soluble on expression in E. coli; label from the status in PepcDB or PDB records
In the case of “SKAAIYHAFSHKEAKDHDVQELGSQRAEAFVRAFLKQSIPHMSQEDCESHLQRKAVILEYFTRLKPRPRPKKKSKGLSAKQRRDMRLFDIKPEQQRYSLFLPLHELWKQYIRDLCNGLKPDTQPQMIQAKLLKADLHGAIISVTKSKCPSYVGVTGILLQETKHVFKIITREDHLKVIPKLNCVFTIEIDDFISYIYGSKFQLRASERSAKKFKAKGSIDL”, the “soluble on expression in E. coli” value is reported as “soluble”.
For “SKDELGEVIHAFNRMMTKLRKREKQRQHSLATLEQKRAFSEEVIESIQYALVITDNLGTIIHSNAATQHIFQKTPEALENANIRDLIKTKMPNELSQILSRCLECDDIHLQNIDNEQQLSLTTRRLSNHGYLLFAIQD”, the “soluble on expression in E. coli” value was “not soluble”.
With “SKIASFDVDAQKGFTPLCPDELPVPGGDAIGGALNQLASRAALRLGSKDAHSPKAAWVVESAEQMLRPLAYPDADLTWVSHCVPGTPGFELLDELPRPIDYDFFVWKGVEPDLHPYGACYHDLAERRSTGVIEYLRQNGVSHVLVGGLALDYCVKNTALQLRRAGFEVLLYLPACRAIAEDTAQRACDEMRDAGVILCADLERLDSALA” the “soluble on expression in E. coli” value was “not soluble”.
With “SKKVIGKKRAHAEDDELDPMDPSSYSDAPRGGWVVGLKGVQPRAADTTASTGIFFKFQITDLTKPDEKIEVLTKRDQIVFQGPLFQQRPYPSPGAVLRRNAEVASSQKKKPNSQFTEITKRGDGSDGLGDAD” the “soluble on expression in E. coli” value was “soluble”.
With “SKRRRCKGKNMTKNLLVELGLEELPAYVVTPSEKQLGEKMAAFLGENRLSYESIQTFSTPRRLAVRVLGLADQQTDLTEDFKGPSKKIALDADGNFSKAAQGFVRGKGLTVDDIEFREVKGEEYVYVTKHEAGKSAKEVLAGIPEVLASLTFPVSMHWANNSFEYIRPVHTLIVLLGDEALELDFLGIKSGRVSRGHRFLGHEVEITNADSYEEDLRTVYVIANSKERENMIREQIKAIEAEQGVQVQIEEGLLNEVLNLVEYPTTFMGGFDTKYLDVPEDVLVTSMETHQRYFVVRDLDGRLKPNFISVRNGNAEHLENVVRGNEKVLVARLEDGEFFWREDQKLKIEDLVAKLANVTFHEKIGSLSEHMARAGVIAASLAEKAGLTAEEKAAVARAAEIYKFDLLTGMVGEFDELQGIMGEKYALLAGEDEAVATAIREHYLPDSADGALPETKVGAILALADKLDTLLSFFSVGLIPSGSNDPYALRRATQGIVRILDAFGWHIPMDELIDSLYGLSFDSLSYDNQAEVIRFIKARVDKMMGSTPKDIKEAVLSGSNFV” the “soluble on expression in E. coli” value was “not soluble”.
With “SKSKEPLLNGFFWNRTSIYYNCQVIIEVTEMLHNASLLIDDIEDSSKLRRGFPVAHSIYGIPSVINSANYVYFLGLEKVLMLEHPEAVRVFTRQLLELHRGQGLDIHWRDTYTCPSEAEYRAMVLQKTGGLFGLAVGLMQLFSDWKRDLKPLLDTLGLYFQIRDDYANLNSKQYSANKSFCEDLTEGKFSFPTIHAIWSHPESTQVQNILRRRTENLDIKRYCVDYLEKVGSFAYTRQTLLDLEVEAYRLIKELGGNPELEALVEHLSRMYKEPEGGATVSQSK” the “soluble on expression in E. coli” value was “soluble”.
For “SLCIDRQLYSAVQNSNRQKHQPLNSYVSLSDENESDHLEGSWSEDPEALIIDQESTRTLEREITKVLSPMENKVLDYYLRGYGYVKIAEIMGKTPKSIDNALQRIRGKIRNFSAPVQK”, the “soluble on expression in E. coli” value was “not soluble”.
For “SLDARLWLERIRELPIPDGIRIMNVCGGHERSISMAGLRTALPPAIRLIPGPGCPVCICPEEDIYQAIRLGLEGEAVVATFGDMLRVPVNLGRQAVRTLEQAKAAGADIRPIASPIEARIIAEKAAGKPVVLFAVGFETTMAPVAALMAEGLPDNLYILCSGRLTWPAVKLLLDSDECVLDALVAPGHVATVMGPEEWAFVADDYRLPVAIAGFTPASLLRAIHSTIVQWLEETPRLDNCYPEAVKPGGNPKAREFLDRSFDVAAGNWRGIGPIAASAYALKPGFAAHDARLHFPDYDAGDRRHAGEMPAGCDCARVVLGRIQPDECRIYGKPCSPRSPVGPCMVSDEGACRIWWAAGVRKDSAAA”, the “soluble on expression in E. coli” value was “not soluble”.
With “SLDTTRPLSWDFQSQLMSNLKILYCLNMLKLSNWYFGGIMKVYGLFGINENAINDFIENHIKTFTIINALNLETVKNLKEGDLVFITSTLREDLRNGTEGILGRVINVSLVPQMINGFEEKEIIAGRVQLEMLGFAKCVKYESIHVEITFRMY” the “soluble on expression in E. coli” value was “not soluble”.
